In patent US20150225459A1 (ARCH CANCER THERAPEUTICS, published 2015):
Ends that are not written are not given here.

Target: T1, LSALT phage (T7 phage displaying the LSALT peptide LSALTPSPSWLKYKAL) (also: displayed on T7 phage, fused to the coat protein)
T1 construct: The peptide is not naturally occurring; it is the out-of-frame product of Ube2n; also called Ube2n (LSALT) phage; LSALT-bacteriophage
T1 peptide: LSALTPSPSWLKYKAL
Assay: biopanning of a combinatorial M13 phage library against LSALT phage immobilized on nitrocellulose
From the text: When the LSALT phage was immobilized on nitrocellulose and biopanned against with a combinatorial M13 phage library, the following peptides were isolated as peptides that bind specifically with the LSALT. These peptides provide potential targets for action of LSALT peptides, variants and modifications thereof.

Binding result, binds:
DNTRVDT (also called putative target of LSALT) [DNTRVDT (SEQ ID NO: 9)]
GLHNKTH (also called putative target of LSALT) [GLHNKTH (SEQ ID NO: 14)]
TTEHPRK (also called putative target of LSALT) [TTEHPRK (SEQ ID NO: 12)]
LNTQTGK (also called putative target of LSALT) [LNTQTGK (SEQ ID NO: 15)]
EQFTNLLDMTYA (also called putative target of LSALT) [EQFTNLLDMTYA (SEQ ID NO: 5)]
FEQKKGT (also called putative target of LSALT) [FEQKKGT (SEQ ID NO: 8)]
PTLPWKK (also called putative target of LSALT) [PTLPWKK (SEQ ID NO: 10)]
HLPSIIPTMPYR (also called putative target of LSALT) [HLPSIIPTMPYR (SEQ ID NO: 2)]
TNITESQQLNWR (also called putative target of LSALT) [TNITESQQLNWR (SEQ ID NO: 7)]
NERNSWH (also called putative target of LSALT) [NERNSWH (SEQ ID NO: 16)]
IPPSYSATLPALR (also called putative target of LSALT) [IPPSYSATLPALR (SEQ ID NO: 4)]
LGPAHLY (also called putative target of LSALT) [LGPAHLY (SEQ ID NO: 13)]
HATGTHGLSLSH (also called putative target of LSALT) [HATGTHGLSLSH (SEQ ID NO: 6)]
MNVTPRQ (also called putative target of LSALT) [MNVTPRQ (SEQ ID NO: 11)]
EQFTNLLDMYTA (also called putative target of LSALT) [EQFTNLLDMYTA (SEQ ID NO: 3)]
